Assay results from PMC12079483 (2025).

B1: extracellular domains of the trimeric IL-2 receptor (IL-2Rαβγ) (complex)
chain 1: ELCDDDPPEIPHATFKAMAYKEGTMLNCECKRGFRRIKSGSLYMLCTGNSSHSSWDNQCQCTSSATRNTTKQVTPQPEEQKERKTTEMQSPMQPVDQASLPGHCREPPPWENEATERIYHFVVGQMVYYQCVQGYRALHRGPAESVCKMTHGKTRWTQPQLICTGEMETSQFPGEEKPQASPEGRPESETSCLVTTTDFQIQTEMAATMETSIFTTEYQ
chain 2: AVNGTSQFTCFYNSRANISCVWSQDGALQDTSCQVHAWPDRRRWNQTCELLPVSQASWACNLILGAPDSQKLTTVDIVTLRVLCREGVRWRVMAIQDFKPFENLRLMAPISLQVVHVETHRCNISWEISQASHYFERHLEFEARTLSPGHTWEEAPLLTLKQKQEWICLETLTPDTQYEFQVRVKPLQGEFTTWSPWSQPLAFRTKPAALGKDT
chain 3: LNTTILTPNGNEDTTADFFLTTMPTDSLSVSTLPLPEVQCFVFNVEYMNCTWNSSSEPQPTNLTLHYWYKNSDNDKVQKCSHYLFSEEITSGCQLQKKEIHLYQTFVVQLQDPREPRRQATQMLKLQNLVIPWAPENLTLHKLSESQLELNWNNRFLNHCLEHLVQYRTDWDHSWTEQSVDYRHKFSLPSVDGQKRYTFRVRSRFNPLCGSAQHWSEWSHPIHWGSNTSKENPFLFALEA
B2: extracellular domain of the IL-2 receptor β chain (IL-2Rβ) (receptor)
chain: B1 chain 2
B3: extracellular domains of the dimeric IL-2 receptor (IL-2Rβγ) (complex)
chain 1: B1 chain 2
chain 2: B1 chain 3
B4: extracellular domain of the IL-2 receptor α chain (IL-2Rα, CD25) (receptor)
chain: B1 chain 1

Legend:
[1] = target: D20-20K (IL-2 with 20K PEG conjugated at Asp20) (UniProt P60568 21-153, D20 to NAEK, Nε-2-azideoethyloxycarbonyl-L-lysine (NAEK) at position 20, conjugated with DBCO-tethered PEG of 20 kDa by copper-free click reaction); assay: SPR
[2] = target: Y45-20K (IL-2 with 20K PEG conjugated at Tyr45) (UniProt P60568 21-153, Y45 to NAEK, Nε-2-azideoethyloxycarbonyl-L-lysine (NAEK) at position 45, conjugated with DBCO-tethered PEG of 20 kDa by copper-free click reaction); assay: SPR

Binder	Kd [1]	Kd [2]
B1	58.1 nM	–
B2	–	690 nM
B3	–	32.8 nM
B4	99.9 nM	–
